Assay [1] concerns the target T1, full-length human TIGIT on the cell membrane (CHO-K-TIGIT cells; TIGIT-Jurkat cells) (human) (UniProt Q495A1).
T1 sequence (looked up): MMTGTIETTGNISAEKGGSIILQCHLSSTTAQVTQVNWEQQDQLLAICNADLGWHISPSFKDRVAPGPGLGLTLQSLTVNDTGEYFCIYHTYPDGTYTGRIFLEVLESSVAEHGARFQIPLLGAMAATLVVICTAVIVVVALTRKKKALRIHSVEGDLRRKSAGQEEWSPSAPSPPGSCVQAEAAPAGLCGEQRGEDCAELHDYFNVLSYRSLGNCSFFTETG
The experiment in a line: cell-based or functional assay.

Assay [2] deals with recombinant human TIGIT (Human TIGIT His, Sino Biological, 10917-H08H) (human) (UniProt Q495A1). The experiment in a line: BLI (GATOR), antibody on human antibody capture probe, TIGIT-His 40-10 nM.
For assay [3], the target named is T2, full-length human TIGIT on the cell membrane (CHO-K-TIGIT cells; TIGIT-Jurkat cells) (human, UniProt Q495A1 22-244).
T2 construct: whole, on cells; Also used here for TIGIT on human PBMCs in the IFN-gamma assay; also called CHO-TIGIT
T2 sequence (looked up): T1 sequence (looked up)
The experiment in a line: flow cytometry on TIGIT-Jurkat cells. Here is the method:
The binding activity of the anti-TIGIT antibody-IL2 fusion proteins to TIGIT on the cell membrane was tested using flow cytometry. A Jurkat cell line stably expressing human TIGIT was first established. The full-length human TIGIT gene (Sinobio) was amplified by PCR and cloned into the mammalian cell expression vector pcDNA3.1 (Invitrogen), using Not I and Xba I as cloning enzymes. The TIGIT expression plasmid was transfected into Jurkat cells to construct a stable Jurkat cell line expressing TIGIT (TIGIT-Jurkat).
The flow cytometry study method for the binding of TIGIT antibody-IL2 fusion proteins to cell membrane-bound TIGIT is summarized as follows: FACS buffer (1×PBS+0.5% BSA solution) was prepared. The required number of TIGIT-Jurkat cells, about 1×10⁵ to 5×10⁵ cells per sample, was taken and incubated with HC1-IL2 wt/LC1 (ART-Ig) and HC1-IL2mut/LC1 (ART-Ig) diluted to a certain ratio in FACS buffer, approximately 100 μL, at 4° C. for 30 minutes. After washing the cells once with FACS buffer, they were resuspended in FITC-conjugated anti-human IgG (Abcam: 6854) diluted in FACS buffer and incubated at 4° C. for 30 minutes. Finally, after washing the cells with FACS buffer, they were resuspended in 200 μL of FACS buffer for analysis. The parent TIGIT antibody P03479 was used as a control.
(Flow cytometry measures light scatter and fluorescence of single cells or particles in a stream.)

Assay [4] has as its target T3, recombinant human TIGIT (Human TIGIT His, Sino Biological, 10917-H08H) (human, UniProt Q495A1 22-138).
T3 construct: range 1-138; Bought protein; also called recombinant human TIGIT antigen; recombinant human TIGIT protein; not shown: C-terminal histidine tag
T3 sequence (looked up): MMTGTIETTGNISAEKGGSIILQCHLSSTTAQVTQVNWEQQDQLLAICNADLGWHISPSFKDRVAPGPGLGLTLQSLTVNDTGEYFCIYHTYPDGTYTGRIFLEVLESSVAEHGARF
The experiment in a line: ELISA on recombinant human TIGIT protein. (In general: In an ELISA, binding on a coated surface is turned into a signal by an enzyme label.)

As usually defined, the Kd is the free concentration of one partner at which half of the binding sites on the other are occupied at equilibrium, for simple one-to-one binding. The koff is a measure of how fast the partners let go of each other. Usually kon stands for the rate constant with which the complex forms. The EC50 is the concentration giving half of the maximal effect.

Turning to Tiragolumab (antibody), in assay [1], the IFNγ release from PHA-activated PBMCs, increase was 16%.

B1: human-mouse chimeric TIGIT monoclonal antibody 7103-07 (hFc) (antibody, from a related filing, V domains shown)
VH: EVQVVESGGGLVKPGGTLKLSCAASGFTFSTYAMSWVRQSPEQRLEWVAEISSGGSHTFYSDTVTGRFTISRDNAQNTLYLEMNSLRSEDTAMYYCARKTLDYYALDYWGQGTSVTVSS
VL: DVQITQSPSYLAASPGETITINCRASKSISKYLAWYQEKPGKTNKLLIYSGSRLQSGIPSKFSGSGYGTDFTLTISSLEPEDFAMYYCQQHNEYPWTFGGGTKVEIK
Turning to B1, in assay [2], the Kd amounted to 2.96 nM, the off-rate constant (koff) came to 0.00169 s⁻¹ and the kon amounted to 573000 M⁻¹ s⁻¹.

B2: human-mouse chimeric TIGIT monoclonal antibody 7103-01 (hFc) (antibody, from a related filing, V domains shown)
VH: QVQLQQPGAELVKPGASVKLSCKASGYTFISYNIYWVKQRPGQGLEWIGGVNPSNGNTNFNENFKSKATLTVDKSSSTAYMQLSSLTSDDSAVYFCTRGNYYGYEFAYWGQGTLVTVSA
VL: DIVMTQSHKFMSTSVGDRVSITCKASQHVSTAVAWYQQKPGQSPKLLIYSPSYRYTGVPDRFTGSGSGTDFTFTISSVQAEDLAVYYCQQHYSTPWTFGGGTKLEIK
Consider B2, for which, in assay [2], the dissociation constant Kd is 1.73 nM, the koff was found to be 0.000951 s⁻¹ and the kon was determined as 549000 M⁻¹ s⁻¹.

B3: humanized anti-TIGIT monoclonal antibody P03479 (antibody, V domains shown)
VH: EVQVVESGGGLVKPGGSLRLSCAASGFTFSTYAMSWVRQAPGKGLEWVAEISSGGSHTFYADTVKGRFTISRDNAKNTLYLQMNSLRAEDTAVYYCARKTLDYYALDYWGQGTTVTVSS
VL: DVQITQSPSYLSASVGDRVTINCRASKSISKYLAWYQQKPGKAPKLLIYSGSRLQSGIPSRFSGSGYGTDFTLTISSLQPEDFATYYCQQHNEYPWTFGGGTKLEIK
notes: Only variable domains are tied to P03479 itself; HC1/LC1 of the fusion proteins derive from it
As for B3, the EC50 in assay [3] came out at 0.26 µg/mL.

B4: humanized anti-TIGIT monoclonal antibody P03489 (antibody, V domains shown)
VH: QVQLVQSGAEVKKPGASVKVSCKASGYTFISYNIYWVRQAPGQGLEWMGGVNPSNGNTNFNENFQGRVTMTVDTSISTAYMELSRLRSDDTAVYYCTRGNYYGYEFAYWGQGTTVTVSS
VL: DIQMTQSPSSMSASVGDRVTITCKASQHVSTAVAWYQQKPGKAPKLLIYSPSYRYTGVPSRFSGSGSGTDFTFTISSVQPEDIATYYCQQHYSTPWTFGGGTKLEIK
notes: Only variable domains are tied to P03489 itself; HC2/LC2 of the fusion proteins derive from it
Regarding B4, the EC50 in assay [4] came to 0.5 nM.

(Values after patent US20240400680A1 (SHANGHAI CELGEN BIO PHARMACEUTICAL, published 2024).)
